# Test results published in the nanobody polyreactivity screen of Harvey et al. (2022).
# Test: yeast display, Sf9 membrane polyspecificity reagent, FACS + sequencing; frameworks hold sequencing errors
# Outline: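 Galactose-induced (36–48 hours) yeast carrying a synthetic nanobody display library were exposed to 10% biotinylated, detergent-solubilized Sf9 membrane reagent at 4 °C for 1 hour. FACS followed streptavidin microbead enrichment, using low and high (top ~1%) gates for expression (anti-HA) and reagent binding (streptavidin). Colony PCR, MiSeq 2 × 250 sequencing and CDR-length filtering followed. Labels for polyreactivity reflect the gate of origin.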
row,Sequence,polyreactivity (PSR sort gate)
1,QVQLVESGGGLVQAGGTLRLSCAASGSIFYRYDMGWYRPAPGKERELVAAITWSGGSTYYADSVKGRFTISRDNAKNTVYLQMNSLKPEDTAVYYCNAPGDGYLYDHTYDYWGQGTQVTVSS,low polyreactivity
2,QVQLVESGGGLVQAGGSLRLSCAASGITLNRNAMGWYRQAHGKERELVARISRRGGTTYYADSVKGRFTISRDNAKNTVYLQMNSLKPEDTAVYYCNAGPYGGNPFDYWGQGTQVTVSS,high polyreactivity
3,QVQLVESGGGLVQAGGSLRLSCAASGSISYKYALGWYRQAPGKERELVAAISSSGGRTYYADSVKGRFTISRDNAKNTVYLQMISLKPEDTAVYYCNARTGTTWQGYEYDYWGQGTQVTVSS,low polyreactivity
4,QVQLVESGGGLVQAGGSLRLSCAASGIIFAYNAMGWYRQAPGKERELVATITDSGGSTSYADSVKGRFTISRDNAKNTVYLQMNSLKPEDTAVYYCAVLPVYWYWRNYVYLSGYDYWGQGTQVTVSS,low polyreactivity
5,QVQLVESVGGLVQAGGSLRLSCAASGRIFAPNAMGRYRQAPGKERELVAAITSRGSRTYYADSVKGRFTISRDIAKNTVYLQMKSLKPEDTAVYYCATPYRAPWGTARNYGLYYYWGQGTQVTVSS,high polyreactivity
6,QVQLQESGGGLVQAGGSLRLSCAASGTISPLPAMGWYRQAPGKEREFVAGIDTGAITNYADSVKGRFTISRDNAKNTVYLQMNSLIAEDTAVYYCAVFPAAYDYYERYYTYWGQGTQVTVSS,low polyreactivity
7,QVQLVESGGGLVQAGGSLRLSCAASGRIFWYYAMGWYRQAPGKERELVATISYVGGNTYYADSVKGRFTISRDNAKNTVYLQMNSLKPDDTAVYYCARVPYAYLPYKPFQQYSYDYWGQGTQVTVSS,high polyreactivity
8,QVQLVDSGGGLVQAGGSLRLSCAASGFTFFRYAMGWYRQAPGKERELVAAITSGGGRTYYADSVKGRFTISRDNAKNTVYLQMNSLNPEDTAVYYCAARVYFSFITPIKYNYWGQGTQVTVSS,high polyreactivity
9,QVQLVESGGGLVQAGGSLRLSCAASGFIFGYYAMAWYRQAPGKERELVAAITSGTGTNYADSVKGRFTISRDNAKNTVYLQMNSLKPEDTAVYYCAAYYTWLSEFGYWGQGTQVTVSS,low polyreactivity
10,QVQLVESRGGLVQAGGSLRLSCAASGFTFWDNVIGWYRQAPGKERELVAAISNSGGRTYYADSVKGRFTISRDNEKNTVYLQMNILKPEDTAVYYCARYGRRHGYPILDYWGQGTQVTVSS,high polyreactivity
11,QVQLVESGGGLVQAGGSLRLSCASSGSIFFGYGMGWYRQAPGKERELVATITTSGGTYYADSVKGRFRISRDNAKNTDYLQMNSLKPEDTAVYYCAATAAALDGNTIMYYWGQGTQVTVSS,low polyreactivity
12,QVQLVESGRGLVQAGGSLRLSCAASGRIFKRYTMGWYRPAPGKETELVAGITFSGGSTYYADSVKGRFTISRDNAKNTVYLQMNSLKREDTAVYYCAADDAYYTYQYDYWGQGTQVTVSS,low polyreactivity
13,QVQLVESGGGLVHAGGSLRLSCAPSGSIFGPYAMGWYIQAPGKERELVAAIRSGGSTNYADSVKGRFTISRDNAKNTVYLQMNSLKPDDTSVYYWAGEYWGYPYDYWGQGTQVTVSS,low polyreactivity
14,QVQLVESGGGLVQAGGSLRISCAPSGSTFYTNAMGWYRQAPGKEREFVAAISWSGSSTYADSVKGRFTISRDNAKNTVYLQMNSLKPEDTAVYYFAADWFKLRTDYYWGQGTQVTVSS,low polyreactivity
15,QVQLVESGGGLVQAGGSLRLSCAASGRTFIENAMGWYRQAPGKERELVAAISRGGSTYYADSVKGRFTMSRDNAKNTVYLQMNSLKPEDTAVYYCAADYFYLFHYSSQKYSRYEYWGQGTQVTVSS,low polyreactivity
16,QVQLVESGGGLVQAGGSLRLSCAASGRIFGWYAMGGYRQAPGKERELVAAITSGGRTKYADSVKGRLTISRDNAKNTVYLQMNSLKPEDTAVYYCAARPQISSFDGLYYWGQGTQVTVSS,high polyreactivity

row,Sequence,polyreactivity (PSR sort gate)
1,QVQLVESGGGLVQAGGSLRLRGAASGSTFGPNAMGWYRPAPGKEREFVASISWRGGRTYYADSVKGRFTISRDNAKNTVYLQMNSLNPEDTAVYYCAAVSYPAVYGFDYWGQGTQVTVSS,high polyreactivity
2,QVQLVESGGGLVQAGGSLRLSCASYGRTFYDYAMGWYRPAPGKERELVAGIRWSGGSTYYADSVKGRFTISRDNAKNTVYLQLNRLKPEDTAVYYCAADWFAGVAADVEYDYWGQGTQVTVSS,low polyreactivity
3,QVQLVESGGGLVQAGGTLRLSCAATRSTFYPYAMGWYRQAPGKERELVAAISDGDSTNYADSVKGRFTISRDNAKNTVSLQMNSVKPEDTAVYYCNADYVRIFYSYYGYHDYDYWGQGTQVTVSS,low polyreactivity
4,QVQLVESGGGLVQAGGSLRLSCAASGSTFGINAMGWYRQAPGKERELVASITRRGGSTYYADSVKGRFTISRDNAKNTVYLRMNSLKPEDTAVYYCNKTYRYGTPLYDYWGQGTQVTVSS,high polyreactivity
5,QVQLVETGGGLVQAGGSLRLSCAASGFTFYYYAMGWYRQAPGKERELVAAINRSGGSTYYADSLKGRFTISRDNAKNTVYLQMNSLKPEDTAVYYCAAPYVGGSSHGYWGQGTQVTVSS,high polyreactivity
6,QVQLVESGGGIVQAGGSLRLSCAASGSTIGYYAMGWSRQAPGKERELVAAISRRGGSTYYADSVKGRFTISRDNAKNTVYLQMTSLKPEDTAVYYCAADRRIGDGENYYWGQGTQVTVSS,high polyreactivity
7,QVKLVESGGGLVQAGGSLRLSCAASGFTIRSYFIVWNRQAPGKERELVAAITRRGGRTYYADSVKGRFTISRDNAKNTVFLQMNSLKPEDTAVYYCAAGPYLVDVDYWGQGTQVTVSS,high polyreactivity
8,QVQLVESGGGLVQAGGSLRLSCAASGRISGRNAMGWYRQAPGKERELVAVITRGDTNYADSVKGRFTISRDNAKNTVYLQMNSLKPEDTAVYYCAKEPLASGWGYDYWGQGTQVTVSS,high polyreactivity
9,QVQLVESGGGLVQAGGSLRLSCAASGRIFDVYAMGWYRQAPGKERELVAAITGSGGSTYYADSVKGRFTISRDNAKNTVYLQMNSLKPEDTAVYYCNAVGIWFPIRLIVPYDYWGQGTQVTVSS,low polyreactivity
10,QVQLVESGGGLVQAGGSLRLRCAASGNIFLSYAMGWYRQAPGKERELVAGISASGGRTYYADSVKGRFTISRDNAKNTVYLQMNSLKPEDTAVYYCATRGQTRTTTRYYSWGQGTQVTVSS,high polyreactivity
11,QVQLVESGGGLVQAGGSLRLSCAASGGIFKYNAMGWYRQAPGKERELVAAIDTSGGSTYYADSVKGRFTISRDKAKNTVYLQMNSLKPDDTAVYYCAAELCLAQYYYWGQGTQVTVTS,low polyreactivity
12,QVQLVESGGGLVQAGGSLRLSCAASGFIFDKNAMGWYRQAPGKERELVAAITSSGGSTYADSVKGRFTISRDNAKNTVYLQMNSLKPEDTAVYYCAARWYRPWYVTDSGDDYWGQGTQVTVSS,low polyreactivity
13,QVQLVESGGGLVQAGGSLRLSCAASGRTFGCYAMGWYRQAPGKERELVASITQRGGRTYYADSVKGRFTISRDNAKNTVYLQMNSLKPEDTAVYYCAAKTSPGMYYWVQGTQVTVSS,high polyreactivity
14,QVQLVESGGGLVQAGGSLRLSCAASGYTLRPNGMGWYRQAPGKERELVAAISSGGSTYYADSVKGRFTISRDNAKNTVYLQMISLKPEDTAVYYCAAEYWYDYWGQGTQVTVSS,low polyreactivity
15,QVQLVESGGGLVQAGGSLRLSCAASGSTFTVYAMRWYRQAPGKERELVADITGGGRTYYADSVKGRFTISRDNAKNTVYLQMNSLKPEDTAVYYCAKKYSWRYARVYSLHFDYWGQGTQVTVSS,high polyreactivity
